Data as given in patent publication US20200179533A1.

Experiments:
PiT-2-HA (human) = PiT-2-HA (human) (UniProt Q08357); assay: cell-based or functional assay
[1] = molecular target: PiT-2 receptor (human receptor gene PiT-2, SLC20A2) (human) (UniProt Q08357); assay: cell-based or functional assay

Q: With “Amphotropic Envelope gene product included in the Reximmune-C1 and 2 retroviral vector” as the substance, how does the EGFP+ cells (%) (transduction efficiency, PiT-2-HA-HCT-15) (PiT-2-HA (human)) read?
A: 14.9%

Q: What about the EGFP+ cells (%) (transduction efficiency, PiT-2-CHO-K1) [1] of the same substance?
A: 34%

Q: What about the EGFP+ cells (%) (transduction efficiency, PiT-2-MIA-PaCa-2) [1] of the same substance?
A: 78.6%

Q: And the EGFP+ cells (%) (transduction efficiency, PiT-2-RKO) [1]?
A: 43.1%
